Experimental findings from the supplement of paper PMC5998384 are described below.

The subject of data set [1] is HeLa Kyoto. Put plainly: solubility in G1/S (NP-40 vs SDS abundance) (log2 ratio); higher = more soluble. The note with it: cell cycle stage: G1/S.
The subject of data set [2] is HeLa Kyoto. Put plainly: thermal stability score vs G1/S (z-score of summed log2 fold changes over temperatures); higher = more thermally stable than in G1/S.
For data set [3], the system named is HeLa Kyoto. As to the kind of experiment: solubility change mitosis vs G1/S (difference of NP-40 vs SDS log2 ratios) (log2 ratio difference); higher = more soluble in mitosis.
Data set [4] concerns HeLa Kyoto. Put plainly: melting temperature (median over replicates), in situ; higher = more thermally stable.
Where [5] appears, read: cell cycle stage: early G1 (4.5 h after nocodazole release).
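Wherever melting temperature (median over replicates), in situ is given: HeLa Kyoto cells synchronized by double thymidine or nocodazole block, proteins quantified by TMT10plex mass spectrometry, three independent biological replicates.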
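Wherever solubility change mitosis vs G1/S (difference of NP-40 vs SDS log2 ratios) is given: synchronized HeLa Kyoto cells (double thymidine block for G1/S, nocodazole release for mitosis), protein amounts in NP-40 versus SDS lysates quantified by mass spectrometry, three biological replicates.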
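Wherever solubility in G1/S (NP-40 vs SDS abundance) is given: HeLa Kyoto cells arrested at G1/S by double thymidine block, proteins quantified by TMT10plex mass spectrometry in mild NP-40 versus SDS extracts, three biological replicates.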
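Wherever thermal stability score vs G1/S (z-score of summed log2 fold changes over temperatures) is given: synchronized HeLa Kyoto cells, proteins quantified by TMT10plex mass spectrometry, three biological replicates, mitosis taken 0.5 h after nocodazole release, G1/S directly after double thymidine block.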

Chain of STK26 (chain, as listed by the source): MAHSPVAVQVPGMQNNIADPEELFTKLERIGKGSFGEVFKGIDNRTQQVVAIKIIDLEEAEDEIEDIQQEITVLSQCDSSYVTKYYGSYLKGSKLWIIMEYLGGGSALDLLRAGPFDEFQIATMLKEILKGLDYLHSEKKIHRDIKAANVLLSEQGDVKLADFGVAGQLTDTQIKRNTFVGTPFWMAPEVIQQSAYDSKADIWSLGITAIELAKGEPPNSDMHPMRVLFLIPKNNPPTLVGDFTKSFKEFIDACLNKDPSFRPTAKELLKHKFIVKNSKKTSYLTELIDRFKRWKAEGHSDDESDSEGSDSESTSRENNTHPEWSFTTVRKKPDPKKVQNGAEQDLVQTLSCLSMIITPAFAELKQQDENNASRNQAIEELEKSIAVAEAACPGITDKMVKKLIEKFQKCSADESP

Take “MAAPMEVAVCTDSAAPMWSCIVWELHSGANLLTYRGGQAGPRGLALLNGEYLLAAQLGKNYISAWELQRKDQLQQKIMCPGPVTCLTASPNGLYVLAGVAESIHLWEVSTGNLLVILSRHYQDVSCLQFTGDSSHFISGGKDCLVLVWSLCSVLQADPSRIPAPRHVWSHHALPITDLHCGFGGPLARVATSSLDQTVKLWEVSSGELLLSVLFDVSIMAVTMDLAEHHMFCGGSEGSIFQVDLFTWPGQRERSFHPEQDAGKVFKGHRNQVTCLSVSTDGSVLLSGSHDETVRLWDVQSKQCIRTVALKGPVTNAAILLAPVSMLSSDFRPSLPLPHFNKHLLGAEHGDEPRHGGLTLRLGLHQQGSEPSYLDRTEQLQAVLCSTMEKSVLGGQDQLRVRVTELEDEVRNLRKINRDLFDFSTRFITRPAK [WDR18]”: the “solubility in G1/S (log2)” value in the data set with HeLa Kyoto [1] was -1.23. In addition, the thermal stability score in the data set with HeLa Kyoto [2] (setting [5]) was -1.8; in the data set with HeLa Kyoto [2] (cell cycle stage: mitosis), -5.26. Also, the “solubility change mitosis (log2)” value in the data set on HeLa Kyoto [3] came to 0.571. Also, the melting temperature was 56.6 °C in the data set with HeLa Kyoto [4] (cell cycle stage: G1/S) and 54.1 °C in the data set with HeLa Kyoto [4] (cell cycle stage: mitosis).
As for PRRC2C, the “solubility in G1/S (log2)” value with HeLa Kyoto [1] was -0.328. The results for the thermal stability score in the data set with HeLa Kyoto [2] (setting [5]) and in the data set with HeLa Kyoto [2] (cell cycle stage: mitosis) were -0.644 and -2.2, respectively. The “solubility change mitosis (log2)” value in the data set on HeLa Kyoto [3] turned out to be 0.111. Moreover, the melting temperature worked out at 55.6 °C in the data set on HeLa Kyoto [4] (cell cycle stage: G1/S) and 55.2 °C in the data set on HeLa Kyoto [4] (cell cycle stage: mitosis).
Consider “MAAPSPSGGGGSGGGSGSGTPGPVGSPAPGHPAVSSMQGKRKALKLNFANPPFKSTARFTLNPNPTGVQNPHIERLRTHSIESSGKLKISPEQHWDFTAEDLKDLGEIGRGAYGSVNKMVHKPSGQIMAVKRIRSTVDEKEQKQLLMDLDVVMRSSDCPYIVQFYGALFREGDCWICMELMSTSFDKFYKYVYSVLDDVIPEEILGKITLATVKALNHLKENLKIIHRDIKPSNILLDRSGNIKLCDFGISGQLVDSIAKTRDAGCRPYMAPERIDPSASRQGYDVRSDVWSLGITLYELATGRFPYPKWNSVFDQLTQVVKGDPPQLSNSEEREFSPSFINFVNLCLTKDESKRPKYKELLKHPFILMYEERAVEVACYVCKILDQMPATPSSPMYVD [MAP2K4]”, for which the “solubility in G1/S (log2)” value in the data set on HeLa Kyoto [1] stood at 0.456. Besides, the thermal stability score stood at 0.539 in the data set with HeLa Kyoto [2] (setting [5]) and 0.431 with HeLa Kyoto [2] (cell cycle stage: mitosis). Also, in the data set on HeLa Kyoto [3], the “solubility change mitosis (log2)” value was 0.0151. For the same substance, the melting temperature with HeLa Kyoto [4] (cell cycle stage: G1/S) was 50.7 °C; with HeLa Kyoto [4] (cell cycle stage: mitosis), 51.5 °C.
Take “MAASGEPQRQWQEEVAAVVVVGSCMTDLVSLTSRLPKTGETIHGHKFFIGFGGKGANQCVQAARLGAMTSMVCKVGKDSFGNDYIENLKQNDISTEFTYQTKDAATGTASIIVNNEGQNIIVIVAGANLLLNTEDLRAAANVISRAKVMVCQLEITPATSLEALTMARRSGVKTLFNPAPAIADLDPQFYTLSDVFCCNESEAEILTGLTVGSAADAGEAALVLLKRGCQVVIITLGAEGCVVLSQTEPEPKHIPTEKVKAVDTTGAGDSFVGALAFYLAYYPNLSLEDMLNRSNFIAAVSVQAAGTQSSYPYKKDLPLTLF [RBKS]”: the “solubility in G1/S (log2)” value in the data set with HeLa Kyoto [1] amounted to 0.229. In addition, the values for the thermal stability score in the data set with HeLa Kyoto [2] (setting [5]) and in the data set with HeLa Kyoto [2] (cell cycle stage: mitosis) were -2.59 and -2.4, respectively. Moreover, the “solubility change mitosis (log2)” value with HeLa Kyoto [3] was -0.0848. For the same substance, the melting temperature amounted to 57.9 °C in the data set with HeLa Kyoto [4] (cell cycle stage: G1/S) and 54.8 °C with HeLa Kyoto [4] (cell cycle stage: mitosis).
Consider “MLVHLFRVGIRGGPFPGRLLPPLRFQTFSAVRNTWRNGKTGQLHKAEGEYSDGYRSSSLLRAVAHLRSQLWAHLPRAPLAPRWSPSAWCWVGGALLGPMVLSKHPHLCLVALCEAEEAPPASSTPHVVGSRFNWKLFWQFLHPHLLVLGVAVVLALGAALVNVQIPLLLGQLVEVVAKYTRDHVGSFMTESQNLSTHLLILYGVQGLLTFGYLVLLSHVGERMAVDMRRALFSSLLRQDITFFDANKTGQLVSRLTTDVQEFKSSFKLVISQGLRSCTQVAGCLVSLSMLSTRLTLLLMVATPALMGVGTLMGSGLRKLSRQCQEQIARAMGVADEALGNVRTVRAFAMEQREEERYGAELEACRCRAEELGRGIALFQGLSNIAFNCMVLGTLFIGGSLVAGQQLTGGDLMSFLVASQTVQRSMANLSVLFGQVVRGLSAGARVFEYMALNPCIPLSGGCCVPKEQLRGSVTFQNVCFSYPCRPGFEVLKDFTLTLPPGKIVALVGQSGGGKTTVASLLERFYDPTAGVVMLDGRDLRTLDPSWLRGQVVGFISQEPVLFGTTIMENIRFGKLEASDEEVYTAAREANAHEFITSFPEGYNTVVGERGTTLSGGQKQRLAIARALIKQPTVLILDEATSALDAESERVVQEALDRASAGRTVLVIAHRLSTVRGAHCIVVMADGRVWEAGTHEELLKKGGLYAELIRRQALDAPRTAAPPPKKPEGPRSHQHKS [ABCB8]”, for which the “solubility in G1/S (log2)” value with HeLa Kyoto [1] was -0.36. The thermal stability score is 0.49 with HeLa Kyoto [2] (setting [5]) and -0.355 in the data set on HeLa Kyoto [2] (cell cycle stage: mitosis). In addition, the “solubility change mitosis (log2)” value in the data set with HeLa Kyoto [3] came to 0.155. Also, the melting temperature in the data set with HeLa Kyoto [4] (cell cycle stage: G1/S) was determined as 51.1 °C.
With STK26, the “solubility in G1/S (log2)” value in the data set on HeLa Kyoto [1] was 0.393. Moreover, the thermal stability score was 1.96 with HeLa Kyoto [2] (setting [5]) and 2.98 in the data set on HeLa Kyoto [2] (cell cycle stage: mitosis). The “solubility change mitosis (log2)” value with HeLa Kyoto [3] was -0.0994. Further, the melting temperature in the data set with HeLa Kyoto [4] (cell cycle stage: G1/S) turned out to be 49.1 °C; in the data set with HeLa Kyoto [4] (cell cycle stage: mitosis) it was 49.8 °C.
